In patent US20190382481A1 (Janssen / Centocor, published 2019):

Tests used:
[1] = target: T1, Human CD33 full length (over-expressed on transduced HEK293F cells) (human, UniProt P20138 18-364); assay: flow cytometry, HEK293F cells expressing human CD33
T1 construct: also called huCD33; human CD33 expressing cells
Procedure: (§1) The purified antibodies were assessed for binding to stably transfected HEK293F cells expressing human CD33 or cyno CD33 (generation described above) along with the parental HEK293F as negative control. Cells were harvested from tissue culture flasks using non-enzymatic dissociation buffer (Thermo Scientific). The flasks were rinsed twice with PBS and dissociation buffer was added to the flask, and the flask was incubated for 10 minutes at 37° C. until the cells became non-adherent. The cells were centrifuged at 300 g for 5 minutes and resuspended at 1.0×10⁶ cells/ml in staining buffer (Becton Dickinson; Franklin Lakes, N.J.). 50,000 cells/well of each cell type was plated in 50 μl of staining buffer in round bottom plates (Becton Dickinson). 50 μl of 2× concentration test mAb or isotype control was added at 3 dilutions and zero (120 nM, 12 nM, and 1.2 nM and 0 nM), and the resultant solution was incubated 30 min at 4° C. […] 30 ul running buffer containing Sytox Green live/dead dye (ThermoFisher) was added to all wells with cells and the plates were read on an iQue IntelliCyt flow cytometer. […] Antibody binding was assessed by the mean fluorescence intensity in the AF647 channel. […]

[2] = target: T2, Cyno CD33 full length (over-expressed on transduced HEK293F / HEK 293T cells) (cyno); assay: flow cytometry, HEK293F cells expressing cyno CD33
T2 construct: also called cyCD33; cyno CD33 expressing cells
T2 sequence (chain, as listed by the source limits assumed): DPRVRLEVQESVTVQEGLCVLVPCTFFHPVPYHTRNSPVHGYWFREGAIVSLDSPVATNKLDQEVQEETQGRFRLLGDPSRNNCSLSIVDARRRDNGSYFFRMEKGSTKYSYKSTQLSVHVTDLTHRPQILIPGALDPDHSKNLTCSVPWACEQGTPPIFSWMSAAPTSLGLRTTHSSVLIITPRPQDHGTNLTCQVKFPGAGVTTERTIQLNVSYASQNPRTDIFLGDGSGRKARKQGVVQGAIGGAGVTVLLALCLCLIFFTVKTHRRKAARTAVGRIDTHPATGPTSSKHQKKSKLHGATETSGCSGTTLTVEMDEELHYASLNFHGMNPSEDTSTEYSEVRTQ
Procedure: as §1

T1 sequence (P20138 18-364 limits assumed): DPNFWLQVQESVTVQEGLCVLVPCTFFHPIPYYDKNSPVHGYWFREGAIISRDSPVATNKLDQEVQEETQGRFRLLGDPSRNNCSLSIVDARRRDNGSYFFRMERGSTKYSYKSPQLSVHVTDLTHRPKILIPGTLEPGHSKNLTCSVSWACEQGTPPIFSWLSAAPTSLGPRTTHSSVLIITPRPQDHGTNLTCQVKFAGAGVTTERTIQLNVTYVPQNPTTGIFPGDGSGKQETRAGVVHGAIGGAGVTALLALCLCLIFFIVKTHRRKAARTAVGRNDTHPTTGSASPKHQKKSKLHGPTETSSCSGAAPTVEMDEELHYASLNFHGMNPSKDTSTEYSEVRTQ

binding result [1]: no binding
binding result [2]: no binding
B1: C33B909 (antibody, V domains shown)
VH: EVQLVESGGGLVQPGRSLRLSCVASGFTFDDYAIHWVRQAPGKGLEWVSGLSWNGGNIGYADSVKGRFTISRDNAKNSLYLQMNSLKTEDTAFYYCTKDTPYGDYFDYWGQGTLVTVSS
VL: DIQMTQSPSSVWASVGDRVTITCRASQGISSWLAWYQQQPGKAPNLLIYRSSSLQSGVPSRFSGSGSGTDFTLTISSLQPEDFATYYCQQDNSFPYTFGQGTKLEIKR
notes: OMNIMouse campaign; also called C33H249/C33L115
